# Experiments:
# [1] = biological target: human IL-11 (native, secreted by human fibroblasts in culture) (human) (UniProt P20809); assay: cell-based or functional assay
# [2] = biological target: mouse IL-11 (endogenous, produced by mouse fibroblasts in culture) (mouse) (UniProt P47873); assay: cell-based or functional assay
# Chain of UniProt P47873 (P47873 22-199 limits assumed): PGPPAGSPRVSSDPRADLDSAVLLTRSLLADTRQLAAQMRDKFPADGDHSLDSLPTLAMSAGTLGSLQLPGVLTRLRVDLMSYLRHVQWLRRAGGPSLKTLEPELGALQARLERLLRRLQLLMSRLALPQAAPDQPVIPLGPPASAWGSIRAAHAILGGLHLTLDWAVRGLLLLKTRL
# Chain of UniProt P20809 (P20809 22-199): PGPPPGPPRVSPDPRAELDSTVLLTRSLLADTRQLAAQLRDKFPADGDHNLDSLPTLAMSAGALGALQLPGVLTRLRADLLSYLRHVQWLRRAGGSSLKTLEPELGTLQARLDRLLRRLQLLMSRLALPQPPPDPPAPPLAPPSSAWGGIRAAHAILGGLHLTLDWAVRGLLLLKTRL
substance,measurement,setting,value
"neutralising anti-human IL-11 monoclonal antibody (Monoclonal Mouse IgG2A; Clone #22626; Catalog No. MAB218; R&D Systems, MN, USA)","percentage of activated fibroblasts normalised to non-stimulated cultures, TGFβ1-stimulated human atrial fibroblasts (fold of non-stimulated)",[1],0.99
same,"percentage of activated fibroblasts relative to unstimulated cultures, TGFβ1-stimulated human atrial fibroblasts",[1],0.89 fold
same,"percentage of activated fibroblasts, TGFβ1-stimulated human atrial fibroblasts",[1],28.3%
same,"percentage of activated fibroblasts normalised to non-stimulated cultures, TGFβ1-stimulated mouse dermal fibroblasts (fold of non-stimulated)",[2],1.24
same,"percentage of activated fibroblasts relative to unstimulated cultures, TGFβ1-stimulated mouse atrial fibroblasts",[2],1.44 fold
same,"percentage of activated fibroblasts, TGFβ1-stimulated mouse dermal fibroblasts",[2],39.4%

# — EP4810607A2
